Target: T1, HLA-A*02:01 (human)
T1 construct: monomers captured on streptavidin plates; also called MHC class I
Assay: UV peptide exchange ELISA
Text: Candidate peptides for T cell based therapies according to the present invention were further tested for their MHC binding capacity (affinity). The individual peptide-MHC complexes were produced by UV-ligand exchange, where a UV-sensitive peptide is cleaved upon UV-irradiation, and exchanged with the peptide of interest as analyzed. Only peptide candidates that can effectively bind and stabilize the peptide-receptive MHC molecules prevent dissociation of the MHC complexes. To determine the yield of the exchange reaction, an ELISA was performed based on the detection of the light chain (p2m) of stabilized MHC complexes.
96 well MAXISorp plates (NUNC) were coated over night with 2 μg/ml streptavidin in PBS at room temperature, washed 4× and blocked for 1 h at 37° C. in 2% BSA containing blocking buffer. […] Peptide-MHC monomers of the UV-exchange reaction were diluted 100 fold in blocking buffer. Samples were incubated for 1h at 37° C., washed four times, incubated with 2 μg/ml HRP conjugated anti-p2m for 1h at 37° C., washed again and detected with TMB solution that is stopped with […]. Absorption was measured at 450 nm.

Binder | peptide exchange yield [%]
FLFATPVFI | 50 to 75
SLNDEVPEV | 20 to 50
SLVGEPILQNV | 20 to 50
FVPPVTVFPSL | 20 to 50
LLQAIKLYL | 20 to 50
ILVGGGALATV | 50 to 75
SLASKLTTL | ≥ 75
LLVEQPPLAGV | 50 to 75
ALYETELADA | 20 to 50
YLFESEGLVL | 50 to 75
ALNPEIVSV | 20 to 50
RVANLHFPSV | 50 to 75
SLATAGDGLIEL | 20 to 50
ALDDGTPAL | 20 to 50
SVIPQIQKV | 50 to 75
ILFEDIFDV | 50 to 75
FLATSGTLAGI | 20 to 50
LLYDAVHIVSV | 50 to 75
STMEQNFLL | ≥ 75
KILQQLVTL | 50 to 75
VQIHQVAQV | 50 to 75
IILSILEQA | ≥ 75
YIMEPSIFNTL | 50 to 75

Binder | peptide exchange yield [%]
YMDAPKAAL | 20 to 50
FLIANVLYL | 10 to 20
YLQELIFSV | 50 to 75
NLLELFVQL | 50 to 75
FLQPVDDTQHL | 50 to 75
LIIDQADIYL | 50 to 75
KIGDEPPKV | 20 to 50
ALVSKGLATV | 20 to 50
ALFPGVALLLA | ≥ 75
ALSEVDFQL | 50 to 75
RLWEEGEELEL | 50 to 75
SLVGLLLYL | ≥ 75
HLTEVYPEL | 50 to 75
YLFDDPLSAV | 20 to 50
AIAGAGILYGV | 20 to 50
FLLAEDDIYL | 50 to 75
ILPDGEDFLAV | 50 to 75
GLLDGGVDILL | 50 to 75
TLAEEVVAL | 50 to 75
VLVSDGVHSV | 50 to 75
TLVLTLPTV | ≥ 75
YVWGFYPAEV | 50 to 75
NLWDLTDASVV | 50 to 75

Binder | peptide exchange yield [%]
YHIDEEVGF | 10 to 20
FLWNGEDSALL | 50 to 75
YLDFSNNRL | 20 to 50
LLLDITPEI | ≥ 75
GLLPTPLFGV | 50 to 75
KLIDNNINV | 50 to 75
SLMEPPAVLLL | 50 to 75
FLYIGDIVSL | ≥ 75
SVMEVNSGIYRV | 50 to 75
YLADPSNLFVV | 50 to 75
YIFTDNPAAV | 50 to 75
ALLGIPLTLV | 50 to 75
KVLSNIHTV | 20 to 50
YQYPRAILSV | 50 to 75
SLINGSFLV | 50 to 75
FLSQVDFEL | 50 to 75
GVVDPRAISVL | 20 to 50
YLLSTNAQL | ≥ 75
SLLEADPFL | 50 to 75
SLLEAVSFL | 50 to 75
VLAYFLPEA | ≥ 75
GIMEHITKI | ≥ 75
YLIDIKTIAI | 20 to 50
